# Laboratory results published in the RNAGym collection of RNA variant scans (doi:10.1073/pnas.2313332121).
# B1: TPR t1 (parent)
# chain: GACCAAUCUGCCCUCAGAGCUCGAGAACAUCUUCGGAUGCAGAGGAGGCAGGCUUCGGUGGCGCGAUAGCGCCAACGUCCUCAACCUCCAAUGCAUCCCACCACAUGAUGAUGCCUGAAGAGCCUUGGUUUUUUG
# Variants of: B1
# Assay: polymerase ribozyme fitness, log enrichment relative to wild type (log ratio); higher = more active; in vitro selection for triplet polymerase activity
# Method in brief: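 To select mutant libraries of each subunit of a heterodimeric triplet polymerase ribozyme, built by PCR and transcribed, each was annealed with a biotinylated primer, partner subunit and triplets, then incubated frozen at −7 °C. Extended constructs were gel-excised, captured on streptavidin beads and amplified by RT-PCR, in one round carried out in triplicate. Illumina sequencing of input and output libraries kept genotypes with ≥10 input reads and ≥1 read per output. Fitness is the base-2 logarithm of genotype enrichment relative to wild-type enrichment, from inverse-variance-weighted replicate averages.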
row,Variant,polymerase ribozyme fitness (log ratio)
1,A27C C104U,-3.21
2,C22U U92G C94A C104G U109G G122A C123A U125A,-7.36
3,A24G G52A A66U C73U A91G,-4.6
4,A27C G69U C73A,-1.89
5,G23C G60A G77C C98G A119U,-7.44
6,A26G G60C C86G,-3.98
7,C22G C53U C85U U112A,-3.51
8,G25A C28A C31G G63U A74G C99U,-7.56
9,C22G A50C A75G,-3.94
10,A24G U87G,-2.03
11,A24U C28G A84C G120U,-7.73
12,C22A U129G,-6.22
13,G23U A26G G63U C82G U133A,-7.09
14,A26C C53U U54A G60U,-5.26
15,G25C G61C U92G G117U,-6.32
16,A24G C40U G71A C114A,-5.13
17,A27G A50U G61A A83G U126G G128C,-5.38
18,A27C G51A C76G,-5.75
19,A26G A27U G36A U112G U129G,-5.51
20,G23A C123A,-4.67
21,A24G C49G A121C,-0.875
22,G25A C72A C86G,-6.66
23,A24U G61U,-6.34
24,G25C A29G C64A C79G A90C G117U A119G,-7.04

row,Variant,polymerase ribozyme fitness (log ratio)
1,A27C G71A,-4
2,G25A G47A C72G C76U U87G C114G,-5.41
3,C22U A37U G69U U78C G110U C115A C124G,-3.86
4,A24G C34A C53U U87G U132A,-4.54
5,C22G G110C C123G,-5.98
6,A26G C70G,-3.51
7,G25A C40U G69C G93C C101U C104G C115U A118G,-7.63
8,A24U C56A G60A C123U U125A,-5.92
9,G23C C53U U92G C123U,-8.04
10,C22G A41C G44C C79G A90C,-6.07
11,A24G G57A U78C C101A,-4.85
12,C22G C64U U112G,-2.89
13,A26U G51A C64U A91U G120A C124G,-6.85
14,A26C U106A G122A,-2.97
15,A24G C97U G120U,-2.28
16,A26G C28G,-2.83
17,C22U U55G C72A C79A C123A,-6.59
18,C22G G42U,-4.63
19,C22G G57U U92C A100U C104A G113A,-7.69
20,A26G G113U,-4.2
21,C22G U106G,-3.47
22,A24U G61U C88A G117C,-6.74
23,G25C A46G C70U C85G,-6.39
24,G25U A121C,-4.83

row,Variant,polymerase ribozyme fitness (log ratio)
1,G23U G51U C56A G63C G69C C114A A121U,-5.92
2,C22G A50G C73G C94A G120C,-4.89
3,C22U G42U G58A C70U,-5.05
4,A26G C89G C102U U112A G120A,-5.43
5,C22G G61C A68C C123U,-6.92
6,C22G C76U G77C C124U U131G,-3.47
7,A24C G35A U55G C115U G127U,-6.12
8,G23C G69C C94G U96A G113U G120C,-7.12
9,C22U A46C,-3.65
10,A26G C80U G120U,-3.13
11,A26C C53U C56G,-5.02
12,A26U U54C C72U U133A,-2.18
13,C22U C34U A83C C124G,-5.96
14,A27G A46U C102U C115A G120A,-7.01
15,A27G C56G U81A C94A G122A C123A U131A,-5.75
16,G23A A121U,-2.19
17,A26U G42C C62U C70A C88U G117U,-6.33
18,G23A A50U,-5.56
19,A26C G61U U78C C80U A83G U116G,-6.77
20,A24G C72U,-1.6
21,C22G G69U U112A A118U,-0.675
22,C22G U38G U87A C98G U112C C114A,-6.53
23,A27G A50U,-2.6
24,A26G C28U A121G,-0.559

row,Variant,polymerase ribozyme fitness (log ratio)
1,A24U U38A C72U C80G C99U,-7.56
2,G25A C62A C86U C102U G120C,-7.36
3,C22U A37G G61C C64A U112C U126G G128A,-6.8
4,C22G C34U U38A U54C A83C U106G U109A C114G,-6.61
5,C22U A50G C104U,-3.86
6,A24G G39C U92G C104U,-5.73
7,C22G U87A G113U,-6.04
8,C22U G45U G48C C102A C124G G128A,-6.17
9,C22G C73U,-2.27
10,G23U C34A G47A C53G G110C U129G,-7.48
11,G25U G61U,-5.8
12,A26U C82G C115U,-5.9
13,A26G A29G A66U C72G U78A A118U,-3.89
14,C22G C40G G45A G47C C72G U112G U132A,-4.49
15,A26C G60C,-6.06
16,A27G C49G G63U C89G G117C,-7.01
17,C22A U116C A121G U129C,-5.72
18,C22G G51A C72G,-4.82
19,C22U G39U G60C C76U U78A C115G G127C,-6.22
20,A26G C53U C101A,-3.58
21,A27G A37G G57C U96G C115A,-5.8
22,A26U G39C G47A C82A A118U,-4.78
23,A26G A50G C56G A74G C82G,-4.41
24,C22G G93C A103G G110U,-6.45

row,Variant,polymerase ribozyme fitness (log ratio)
1,A27C G60A,-3.37
2,C22G G48A G69C U78A U87C,-5.69
3,A24U C72U,-5.63
4,C22U C56U C114U,-4.27
5,A26U C98U,-4.2
6,A27C G61U,-3.27
7,C22G A37U G69U U87G,-2.42
8,A24U G69U C114G,-7.51
9,A26C G39C C104U U106A G120A,-5.96
10,G23C C70A G113U G117C,-6.09
11,C22U G48C C53G C56A,-4.86
12,A26U A95G,-2.46
13,A24G C49G,-1.9
14,A24G U59A U78C C85G U106G,-3.94
15,A26G A29G C80G C86U A119G,-3.74
16,G23A G45A,-5.16
17,G25A G60U G117A,-7.98
18,A24G G120U,-1.65
19,A26G U30C,-4.29
20,G25U A26G,-3.22
21,A26C A83C,-5.16
22,A26U U129G,-3.51
23,C22U U96A,-4.62
24,G23C A46U C86A A119U G120A,-6.31

row,Variant,polymerase ribozyme fitness (log ratio)
1,A26G G45C A95G C98G,-7.76
2,A26U G122A G127U U133G,-4.8
3,A26U G71C U131A,-4.6
4,C22G U38G A43G G113U A119G,-4.22
5,C22G G48C G77A C85G U112G,-3.5
6,G25C A83C C94G A103U C124G U125C,-8.57
7,A26G G71A C88G G120C,-2.52
8,A26U G52U C94G C114A,-7.17
9,A26U C115U,-4.53
10,A24G A41C A46U C53A U125A,-4.79
11,G23A C73G,-3.9
12,G23A C73A,-5.86
13,A24G G58U G61C,-1.68
14,A27C G48A C86G U92A A103G A105C U109G,-7.14
15,A26G A29G C72G U78A A118U,-3.07
16,A24G G48A C64G A108U A121C,-6.51
17,A24G U55G C64U,-1.64
18,A24U G61U A91G G120U C124U G135A,-6.15
19,A26U C49U,-3.62
20,G23U G51A C70A C101A G110A C114A,-6.74
21,A26G C49A U55C C62U G63A A83C U109A G113A,-6.66
22,A26G G71U C88G G120C,-3.91
23,A26U C62U,-3.59
24,C22U C72G C124U,-3.08

row,Variant,polymerase ribozyme fitness (log ratio)
1,G25U G110U,-5.41
2,A26C G117C G122A,-7.15
3,A26G G51U C101U,-5.8
4,C22G C49A G117U,-3.11
5,G23A G117U,-7.76
6,A27C G39A G61A C94A U112G,-4.85
7,A24G G36U C56U C101U,-3.37
8,C22U C64U G77A,-4.03
9,C22G G117A A119G,-1.55
10,A24G C73A,-1.74
11,A26U C53U C56G A100C,-5.42
12,C22U U130G,-3.78
13,A27C U32C G39A C98G,-7.35
14,A24C G63C C79G A90C C124A,-7.24
15,A26U C56U C72U,-3.04
16,C22U G45U C49A U106A,-5.79
17,C22G U132A,-3.21
18,A24C G36U A37U G42U G61A C79A G110C C123U,-7.34
19,A26U A66G,-4.28
20,A26G A74C C88A C115U,-2.88
21,A26G G61C C86U,-4.37
22,A24G G57C A91G,-2.98
23,A26G C89U,-2.94
